This data set addresses bovine articular cartilage aggrecan, P13608.

Sequence of bovine articular cartilage aggrecan, P13608 (P13608 17-2364): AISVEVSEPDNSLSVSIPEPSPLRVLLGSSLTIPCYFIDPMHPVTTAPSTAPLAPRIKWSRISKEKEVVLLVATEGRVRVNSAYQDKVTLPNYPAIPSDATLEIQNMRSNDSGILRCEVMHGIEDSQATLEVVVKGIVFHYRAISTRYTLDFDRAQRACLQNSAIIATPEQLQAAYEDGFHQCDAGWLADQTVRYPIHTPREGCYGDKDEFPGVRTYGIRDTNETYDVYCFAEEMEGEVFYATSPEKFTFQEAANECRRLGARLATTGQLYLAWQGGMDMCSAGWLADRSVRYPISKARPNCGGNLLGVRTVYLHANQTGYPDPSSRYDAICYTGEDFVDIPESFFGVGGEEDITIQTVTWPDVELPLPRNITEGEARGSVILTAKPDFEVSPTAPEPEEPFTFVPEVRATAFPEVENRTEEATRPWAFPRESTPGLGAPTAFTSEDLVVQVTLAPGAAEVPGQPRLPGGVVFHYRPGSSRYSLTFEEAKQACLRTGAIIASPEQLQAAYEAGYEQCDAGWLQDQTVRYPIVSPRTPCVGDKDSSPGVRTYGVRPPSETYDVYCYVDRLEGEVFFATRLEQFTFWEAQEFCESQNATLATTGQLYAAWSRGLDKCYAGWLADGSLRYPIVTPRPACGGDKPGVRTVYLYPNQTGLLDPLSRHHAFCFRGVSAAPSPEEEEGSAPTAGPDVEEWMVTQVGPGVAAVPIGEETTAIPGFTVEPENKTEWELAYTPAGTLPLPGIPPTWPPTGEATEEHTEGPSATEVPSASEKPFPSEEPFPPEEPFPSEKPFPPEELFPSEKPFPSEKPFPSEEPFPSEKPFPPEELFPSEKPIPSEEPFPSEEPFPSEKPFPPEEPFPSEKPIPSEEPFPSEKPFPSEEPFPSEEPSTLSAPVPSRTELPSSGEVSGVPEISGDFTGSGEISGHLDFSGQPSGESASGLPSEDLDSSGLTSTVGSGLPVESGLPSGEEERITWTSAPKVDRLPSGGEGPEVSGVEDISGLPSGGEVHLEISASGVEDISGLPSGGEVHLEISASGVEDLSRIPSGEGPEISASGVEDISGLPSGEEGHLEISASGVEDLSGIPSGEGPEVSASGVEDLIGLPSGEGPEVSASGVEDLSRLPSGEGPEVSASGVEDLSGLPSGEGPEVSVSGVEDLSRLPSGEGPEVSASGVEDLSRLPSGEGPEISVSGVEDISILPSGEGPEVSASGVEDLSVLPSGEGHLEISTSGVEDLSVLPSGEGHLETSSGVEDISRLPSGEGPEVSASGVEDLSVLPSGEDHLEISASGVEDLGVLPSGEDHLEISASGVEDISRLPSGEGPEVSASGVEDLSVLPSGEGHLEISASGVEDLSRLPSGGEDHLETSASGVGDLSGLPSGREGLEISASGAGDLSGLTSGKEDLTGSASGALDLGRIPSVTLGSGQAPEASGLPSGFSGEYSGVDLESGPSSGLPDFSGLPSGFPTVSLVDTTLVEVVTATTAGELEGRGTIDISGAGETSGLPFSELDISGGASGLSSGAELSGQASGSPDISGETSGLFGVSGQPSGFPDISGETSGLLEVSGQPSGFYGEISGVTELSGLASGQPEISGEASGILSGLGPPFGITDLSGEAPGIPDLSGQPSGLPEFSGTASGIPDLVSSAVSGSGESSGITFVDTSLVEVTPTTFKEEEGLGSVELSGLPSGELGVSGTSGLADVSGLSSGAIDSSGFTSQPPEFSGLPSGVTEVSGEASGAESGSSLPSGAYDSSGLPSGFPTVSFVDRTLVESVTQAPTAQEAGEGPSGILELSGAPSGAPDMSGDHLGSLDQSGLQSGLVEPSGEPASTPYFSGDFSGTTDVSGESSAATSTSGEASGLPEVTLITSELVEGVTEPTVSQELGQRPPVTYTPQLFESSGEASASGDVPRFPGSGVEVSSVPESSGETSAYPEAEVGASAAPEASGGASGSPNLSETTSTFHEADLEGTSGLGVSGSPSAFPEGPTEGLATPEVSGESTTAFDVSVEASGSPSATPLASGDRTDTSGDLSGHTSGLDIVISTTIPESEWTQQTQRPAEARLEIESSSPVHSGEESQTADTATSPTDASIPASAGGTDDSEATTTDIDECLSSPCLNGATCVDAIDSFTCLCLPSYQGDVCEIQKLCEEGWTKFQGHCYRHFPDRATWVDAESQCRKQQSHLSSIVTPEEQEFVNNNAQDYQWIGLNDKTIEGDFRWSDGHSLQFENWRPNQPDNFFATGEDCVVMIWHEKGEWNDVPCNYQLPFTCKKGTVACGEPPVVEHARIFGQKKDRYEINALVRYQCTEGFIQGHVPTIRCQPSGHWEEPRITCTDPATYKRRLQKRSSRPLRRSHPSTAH

B1: furin-processed construct H (truncated ADAMTS4 active-site mutant without the spacer domain, C-terminal FLAG tag) (protein)
chain: FASLSRFVETLVVADDKMAAFHGAGLKRYLLTVMAAAAKAFKHPSIRNPVSLVVTRLVILGSGEEGPQVGPSAAQTLRSFCAWQRGLNTPEDSDPDHFDTAILFTRQDLCGVSTCDTLGMADVGTVCDPARSCAIVEDDGLQSAFTAAHQLGHVFNMLHDNSKPCISLNGPLSTSRHVMAPVMAHVDPEEPWSPCSARFITDFLDNGYGHCLLDKPEAPLHLPVTFPGKDYDADRQCQLTFGPDSRHCPQLPPPCAALWCSGHLNGHAMCQTKHSPWADGTPCGPAQACMGGRCLHMDQLQDFNIPQAGGWGPWGPWGDCSRTCGGGVQFSSRDCTRPVPRNGGKYCEGRRTRFRSCNTEDCPVDYKDDDDK
As to B1, the aggrecanase activity result is “Furin-processed construct H (SEQ ID NO:51) and construct I (SEQ ID NO:52) lack aggrecanase activity”.

B2: ADAMTS4(p40), auto-digested isoform of human ADAMTS4 (protein)
chain: FASLSRFVETLVVADDKMAAFHGAGLKRYLLTVMAAAAKAFKHPSIRNPVSLVVTRLVILGSGEEGPQVGPSAAQTLRSFCAWQRGLNTPEDSDPDHFDTAILFTRQDLCGVSTCDTLGMADVGTVCDPARSCAIVEDDGLQSAFTAAHELGHVFNMLHDNSKPCISLNGPLSTSRHVMAPVMAHVDPEEPWSPCSARFITDFLDNGYGHCLLDKPEAPLHLPVTFPGKDYDADRQCQLTFGPDSRHCPQLPPPCAALWCSGHLNGHAMCQTKHSPWADGTPCGPAQACMGGRCLHMDQLQDFNIPQAGGWGPWGPWGDCSRTCGGGVQFSSRDCTRPVPRNGGKYCEGRRTRFRSCNTEDCPTGSALT
B2: the “aggrecanase activity (Western blot with MAb BC-3 for the 374ARGXX neoepitope)” value is listed as “both isoforms have aggrecanase activity”.

B3: furin-processed protein of construct B (truncated ADAMTS4, catalytic domain with His tag) (protein)
chain: FASLSRFVETLVVADDKMAAFHGAGLKRYLLTVMAAAAKAFKHPSIRNPVSLVVTRLVILGSGEEGPQVGPSAAQTLRSFCAWQRGLNTPEDSDPDHFDTAILFTRQDLCGVSTCDTLGMADVGTVCDPARSCAIVEDDGLQSAFTAAHELGHVFNMLHDNSKPCISLNGPLSTSRHVMAPVMAHVDPEEPWSPCSARFITDFLDNGYGHCLLDKPEHHHHHH
Regarding B3, the “enzymatic (aggrecanase) activity” value was “The furin-processed protein from this construct is enzymatically inactive (SEQ ID NO:46)”.

B4: furin-processed mature protein of construct C (protein)
chain: FASLSRFVETLVVADDKMAAFHGAGLKRYLLTVMAAAAKAFKHPSIRNPVSLVVTRLVILGSGEEGPQVGPSAAQTLRSFCAWQRGLNTPEDSDPDHFDTAILFTRQDLCGVSTCDTLGMADVGTVCDPARSCAIVEDDGLQSAFTAAHELGHVFNMLHDNSKPCISLNGPLSTSRHVMAPVMAHVDPEEPWSPCSARFITDFLDNGYGHCLLDKPEAPLHLPVTFPGKDYDADRQCQLTFGPDSRHCPQLPPPCAALWCSGHLNGHAMCQTKHSPWADGTPCGPAQACMGGRCLHMDQLQDFNIPQAGGWGPWGPWGDCSRTCGGGVQFSSRDCTRPVPRNGGKYCEGRRTRFRSCNTEDCPTGSALTFREEQCAAYNHRTDLFKSFPGPMDWVPRYTGVAPQDQCKLTCQARALGYYYVLEPRVVDGTPCSPDSSSVCVQGRCIHAGCDRIIGSKKKFDKCMVCGGDGSGCSGSAWSHPQFEK
For the protein B4, the aggrecanase activity entry is “The furin-processed mature proteins of construct C and D (SEQ ID NOS:47 and 48, respectively) have aggrecanase activity”.

B5: furin-processed mature protein of construct D (protein)
chain: FASLSRFVETLVVADDKMAAFHGAGLKRYLLTVMAAAAKAFKHPSIRNPVSLVVTRLVILGSGEEGPQVGPSAAQTLRSFCAWQRGLNTPEDSDPDHFDTAILFTRQDLCGVSTCDTLGMADVGTVCDPARSCAIVEDDGLQSAFTAAHELGHVFNMLHDNSKPCISLNGPLSTSRHVMAPVMAHVDPEEPWSPCSARFITDFLDNGYGHCLLDKPEAPLHLPVTFPGKDYDADRQCQLTFGPDSRHCPQLPPPCAALWCSGHLNGHAMCQTKHSPWADGTPCGPAQACMGGRCLHMDQLQDFNIPQAGGWGPWGPWGDCSRTCGGGVQFSSRDCTRPVPRNGGKYCEGRRTRFRSCNTEDCPTGSALTFREEQCAAYNHRTDLFKSFPGPMDWVPRYTGVAPQDQCKLTCQARALGYYYVLEPRVVDGTPCSPDSSSVCVQGRCIHAGCDRIIGSKKKFDKCMVCGGDGSGCS
Turning to B5, the aggrecanase activity result was “The furin-processed mature proteins of construct C and D (SEQ ID NOS:47 and 48, respectively) have aggrecanase activity”.

B6: mature protein of construct G (full-length ADAMTS4 active-site mutant E362Q with FLAG tag) (protein)
chain: FASLSRFVETLVVADDKMAAFHGAGLKRYLLTVMAAAAKAFKHPSIRNPVSLVVTRLVILGSGEEGPQVGPSAAQTLRSFCAWQRGLNTPEDSDPDHFDTAILFTRQDLCGVSTCDTLGMADVGTVCDPARSCAIVEDDGLQSAFTAAHQLGHVFNMLHDNSKPCISLNGPLSTSRHVMAPVMAHVDPEEPWSPCSARFITDFLDNGYGHCLLDKPEAPLHLPVTFPGKDYDADRQCQLTFGPDSRHCPQLPPPCAALWCSGHLNGHAMCQTKHSPWADGTPCGPAQACMGGRCLHMDQLQDFNIPQAGGWGPWGPWGDCSRTCGGGVQFSSRDCTRPVPRNGGKYCEGRRTRFRSCNTEDCPTGSALTFREEQCAAYNHRTDLFKSFPGPMDWVPRYTGVAPQDQCKLTCQARALGYYYVLEPRVVDGTPCSPDSSSVCVQGRCIHAGCDRIIGSKKKFDKCMVCGGDGSGCSKQSGSFRKFRYGYNNVVTIPAGATHILVRQQGNPGHRSIYLALKLPDGSYALNGEYTLMPSPTDVVLPGAVSLRYSGATAASETLSGHGPLAQPLTLQVLVAGNPQDTRLRYSFFVPRPTPSTPRPTPQDWLHRRAQILEILRRRPWAGRKVDYKDDDDK
Take B6: the aggrecanase activity entry is “The E362Q mutation abolished the aggrecanase activity of the mature protein (SEQ ID NO:50) of construct G”.

B7: furin-processed construct I (truncated ADAMTS4 active-site mutant without the spacer and the TSP-1 domain, C-terminal FLAG tag) (protein)
chain: FASLSRFVETLVVADDKMAAFHGAGLKRYLLTVMAAAAKAFKHPSIRNPVSLVVTRLVILGSGEEGPQVGPSAAQTLRSFCAWQRGLNTPEDSDPDHFDTAILFTRQDLCGVSTCDTLGMADVGTVCDPARSCAIVEDDGLQSAFTAAHQLGHVFNMLHDNSKPCISLNGPLSTSRHVMAPVMAHVDPEEPWSPCSARFITDFLDNGYGHCLLDKPEAPLHLPVTFPGKDYDADRQCQLTFGPDSRHCPQLPPPCAALWCSGHLNGHAMCQTKHSPWADGTPCGPAQACMGGRCLHMDQLQDFNIPQAVDYKDDDDK
For B7, the aggrecanase activity entry is “Furin-processed construct H (SEQ ID NO:51) and construct I (SEQ ID NO:52) lack aggrecanase activity”.

B8: ADAMTS4(p53), auto-digested isoform of human ADAMTS4 (protein)
chain: FASLSRFVETLVVADDKMAAFHGAGLKRYLLTVMAAAAKAFKHPSIRNPVSLVVTRLVILGSGEEGPQVGPSAAQTLRSFCAWQRGLNTPEDSDPDHFDTAILFTRQDLCGVSTCDTLGMADVGTVCDPARSCAIVEDDGLQSAFTAAHELGHVFNMLHDNSKPCISLNGPLSTSRHVMAPVMAHVDPEEPWSPCSARFITDFLDNGYGHCLLDKPEAPLHLPVTFPGKDYDADRQCQLTFGPDSRHCPQLPPPCAALWCSGHLNGHAMCQTKHSPWADGTPCGPAQACMGGRCLHMDQLQDFNIPQAGGWGPWGPWGDCSRTCGGGVQFSSRDCTRPVPRNGGKYCEGRRTRFRSCNTEDCPTGSALTFREEQCAAYNHRTDLFKSFPGPMDWVPRYTGVAPQDQCKLTCQARALGYYYVLEPRVVDGTPCSPDSSSVCVQGRCIHAGCDRIIGSKKKFDKCMVCGGDGSGCSKQSGSFRK
Consider B8, for which the “aggrecanase activity (Western blot with MAb BC-3 for the 374ARGXX neoepitope)” value is given as “both isoforms have aggrecanase activity”.

The values are drawn from US7118902.
